Experimental data taken from patent US20200317768A1 (published 2020).
Residue numbers refer to the chain shown, from its start.

B1: M103205H795-MY242/M103202L889-SK1 (antibody, human IgG1, kappa)
heavy: QVTLKESGPVLVKPTETLTLTCTVSGIDLSHDDISWVRQAPGKGLEWVGIISYAGSTYYASWAKGRLTISKDTSKNQVVLTMTNMDPVDTATYYCARGVPAYSHGGDLWGQGTLVTVSSASTKGPSVFPLAPSSKSTSGGTAALGCLVKDYFPEPVTVSWNSGALTSGVHTFPAVLQSSGLYSLSSVVTVPSSSLGTQTYICNVNHKPSNTKVDKKVEPKSCDKTHTCPPCPAPELLGGISVFLFPPKPKDTLMISRTPEVTCVVVDVSDEDPEVKFNWYVDGVEVHNAKTKPREEQYNSTYRVVSVLTVLHQDWLNGKEYKCKVSNKALPKPIEKTISKAKGQPREPQVYTLPPSREEMTKNQVSLTCLVKGFYPSDIAVEWESNGQPENNYKTTPKVLDSDGSFFLYSKLTVDKSRWQQGNVFSCSVMHEALHNHYTQKSLSLSP
light: DIVMTQSPATLSLSPGERATLSCTSSQSVYHANWLSWFQQKPGQPPKLLIYWASTLAYGVPSRFSGSGSGTDFTLTISSLQPEDAATYYCAGGYGGGRYAFGQGTKVEIKRTVAAPSVFIFPPSDEQLKSGTASVVCLLNNFYPREAKVQWKVDNALQSGNSQESVTEQDSKDSTYSLSSTLTLSKADYEKHKVYACEVTHQGLSSPVTKSFNRGEC
B2: M103205H795-MY270/M103202L889-SK1 (antibody, human IgG1, kappa)
heavy: B1 heavy with G238H, I240P
light: B1 light
B3: M103205H795-MY292/M103202L889-SK1 (antibody, human IgG1, kappa)
heavy: B1 heavy with G239Y, I240P, Q297L, K398M
light: B1 light
B4: M103205H795-MY276/M103202L889-SK1 (antibody, human IgG1, kappa)
heavy: B1 heavy with G238I, I240P
light: B1 light
B5: M103205H795-MY273/M103202L889-SK1 (antibody, human IgG1, kappa)
heavy: B1 heavy with G238L, I240P
light: B1 light
B6: M103205H795-MY308/M103202L889-SK1 (antibody, human IgG1, kappa)
heavy: B1 heavy with G238T, I240P, D270E, K398P
light: B1 light
B7: M103205H795-MY281/M103202L889-SK1 (antibody, human IgG1, kappa)
heavy: B1 heavy with G238Q, I240P, Q297L, K398P
light: B1 light
B8: M103205H795-MY274/M103202L889-SK1 (antibody, human IgG1, kappa)
heavy: B1 heavy with G238T, I240P
light: B1 light
B9: M103205H795-MY271/M103202L889-SK1 (antibody, human IgG1, kappa)
heavy: B1 heavy with G238V, I240P
light: B1 light
B10: M103205H795-MY278/M103202L889-SK1 (antibody, human IgG1, kappa)
heavy: B1 heavy with G238M, I240P, Q297L, K398P
light: B1 light
B11: M103205H795-MY269/M103202L889-SK1 (antibody, human IgG1, kappa)
heavy: B1 heavy with G238M, I240P
light: B1 light
B12: M103205H795-MY280/M103202L889-SK1 (antibody, human IgG1, kappa)
heavy: B1 heavy with G238V, I240P, Q297L, K398P
light: B1 light
B13: M103205H795-MY272/M103202L889-SK1 (antibody, human IgG1, kappa)
heavy: B1 heavy with G238Q, I240P
light: B1 light
B14: M103205H795-MY293/M103202L889-SK1 (antibody, human IgG1, kappa)
heavy: B1 heavy with G239Y, I240P, D270E, Q297L
light: B1 light
B15: M103205H795-MY279/M103202L889-SK1 (antibody, human IgG1, kappa)
heavy: B1 heavy with G238H, I240P, Q297L, K398P
light: B1 light

target: T1, cynomolgus monkey FcγRIIIaS extracellular domain, C-terminal His-tag (cynomolgus monkey, UniProt A3RFZ7 21-206 (rhesus entry)); test: SPR (Biacore), KD of SG1 / KD of variant;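 further: relative to parent M103205H795-SG1 carrying the SG1 human heavy chain constant region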
T1 construct: also called cyno FcγRIIIaS; cynoFcγRIIIaS; not shown: His-tag added to C-terminus
T1 sequence (A3RFZ7 21-206): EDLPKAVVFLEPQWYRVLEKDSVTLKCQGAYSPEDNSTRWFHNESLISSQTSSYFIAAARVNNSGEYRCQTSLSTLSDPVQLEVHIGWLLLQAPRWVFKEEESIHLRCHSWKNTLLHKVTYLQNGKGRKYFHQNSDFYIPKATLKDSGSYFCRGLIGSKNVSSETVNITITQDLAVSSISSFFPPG

Row | KD fold (SG1 = 1) [fold] | Binder
1 | 0.68 | B1
2 | 0.33 | B2
3 | 0.05 | B3
4 | 0.3 | B4
5 | 0.21 | B5
6 | 0.16 | B6
7 | 0.49 | B7
8 | 0.58 | B8
9 | 0.41 | B9
10 | 0.49 | B10
11 | 1.64 | B11
12 | 0.2 | B12
13 | 1.24 | B13
14 | 0.05 | B14
15 | 0.15 | B15
